# Laboratory results taken from patent US20200308244A1 (ORIONIS BIOSCIENCES, published 2020).
# Where two headings read alike, the source gives them in different places.
# T1: type I interferon-α/β receptor (IFNAR), composed of the IFNAR1 and IFNAR2 subunits (human) (UniProt P17181)
# T1 sequence (looked up) 1: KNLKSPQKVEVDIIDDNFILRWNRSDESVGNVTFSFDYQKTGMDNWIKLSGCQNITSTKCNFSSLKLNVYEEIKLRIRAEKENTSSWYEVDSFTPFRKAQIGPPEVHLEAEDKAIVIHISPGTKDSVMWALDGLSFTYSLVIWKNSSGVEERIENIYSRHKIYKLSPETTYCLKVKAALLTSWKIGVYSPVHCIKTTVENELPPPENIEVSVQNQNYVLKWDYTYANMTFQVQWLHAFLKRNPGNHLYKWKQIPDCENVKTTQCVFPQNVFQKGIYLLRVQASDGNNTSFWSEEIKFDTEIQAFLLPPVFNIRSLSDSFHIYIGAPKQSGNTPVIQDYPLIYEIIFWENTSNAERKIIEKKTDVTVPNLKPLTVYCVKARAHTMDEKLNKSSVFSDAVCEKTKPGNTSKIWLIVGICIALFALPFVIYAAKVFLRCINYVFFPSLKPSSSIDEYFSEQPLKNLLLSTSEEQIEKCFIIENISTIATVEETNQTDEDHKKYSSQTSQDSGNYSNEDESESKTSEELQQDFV
# T1 sequence (looked up) 2: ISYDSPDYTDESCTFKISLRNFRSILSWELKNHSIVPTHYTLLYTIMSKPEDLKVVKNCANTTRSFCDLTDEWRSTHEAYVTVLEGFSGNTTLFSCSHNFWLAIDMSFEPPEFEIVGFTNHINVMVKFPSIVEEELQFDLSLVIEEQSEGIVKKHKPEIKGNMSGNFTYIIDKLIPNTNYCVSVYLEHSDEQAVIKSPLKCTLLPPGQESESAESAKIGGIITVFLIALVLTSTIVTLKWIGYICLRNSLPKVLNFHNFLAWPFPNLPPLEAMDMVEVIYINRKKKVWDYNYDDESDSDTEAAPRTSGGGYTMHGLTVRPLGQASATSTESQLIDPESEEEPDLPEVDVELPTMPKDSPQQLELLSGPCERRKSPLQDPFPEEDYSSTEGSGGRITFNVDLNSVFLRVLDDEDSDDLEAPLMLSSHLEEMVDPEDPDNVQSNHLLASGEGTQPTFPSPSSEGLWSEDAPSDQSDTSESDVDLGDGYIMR
# T2: type I interferon-α/β receptor (IFNAR), composed of the IFNAR1 and IFNAR2 subunits (human, UniProt P17181 28-557; P48551 27-515)
# T2 sequence (looked up) 1: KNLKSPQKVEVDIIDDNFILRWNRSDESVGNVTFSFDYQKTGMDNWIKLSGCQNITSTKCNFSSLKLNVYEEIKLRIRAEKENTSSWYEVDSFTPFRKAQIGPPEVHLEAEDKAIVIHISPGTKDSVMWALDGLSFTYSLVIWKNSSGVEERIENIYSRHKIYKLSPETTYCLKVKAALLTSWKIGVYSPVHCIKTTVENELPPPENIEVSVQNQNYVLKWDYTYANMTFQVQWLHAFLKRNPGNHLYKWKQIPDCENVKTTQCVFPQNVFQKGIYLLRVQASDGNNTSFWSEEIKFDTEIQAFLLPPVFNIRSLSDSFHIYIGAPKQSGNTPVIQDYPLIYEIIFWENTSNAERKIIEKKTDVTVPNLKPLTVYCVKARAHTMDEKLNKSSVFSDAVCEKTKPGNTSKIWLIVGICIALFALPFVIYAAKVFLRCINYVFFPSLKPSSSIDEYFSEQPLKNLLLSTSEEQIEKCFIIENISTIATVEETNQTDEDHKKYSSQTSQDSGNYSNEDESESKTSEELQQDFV
# T2 sequence (looked up) 2: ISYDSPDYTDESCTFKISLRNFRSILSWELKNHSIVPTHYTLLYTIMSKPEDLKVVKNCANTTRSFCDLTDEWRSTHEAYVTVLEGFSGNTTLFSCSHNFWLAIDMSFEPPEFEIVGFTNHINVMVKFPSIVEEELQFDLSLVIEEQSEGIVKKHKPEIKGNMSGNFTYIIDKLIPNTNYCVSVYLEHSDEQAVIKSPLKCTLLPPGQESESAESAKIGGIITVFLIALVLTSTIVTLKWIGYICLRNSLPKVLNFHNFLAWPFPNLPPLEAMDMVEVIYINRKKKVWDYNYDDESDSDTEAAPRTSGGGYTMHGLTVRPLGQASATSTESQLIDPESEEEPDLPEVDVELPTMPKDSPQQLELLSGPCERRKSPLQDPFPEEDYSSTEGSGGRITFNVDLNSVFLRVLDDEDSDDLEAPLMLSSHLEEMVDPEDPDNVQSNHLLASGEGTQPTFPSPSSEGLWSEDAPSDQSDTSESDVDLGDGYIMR
# Tests used:
# Assay in all cases: cell-based or functional assay
# [1] = target: T1, type I interferon-α/β receptor (IFNAR), composed of the IFNAR1 and IFNAR2 subunits (human)
# [2] = target: T1, type I interferon-α/β receptor (IFNAR), composed of the IFNAR1 and IFNAR2 subunits (human); remark: listed apart in the source
# [3] = target: T2, type I interferon-α/β receptor (IFNAR), …
molecule,measurement,setting,value
wild type IFNα2a (Example 7) (from UniProt P01563 24-188) (ligand),"EC50 6-16 reporter activity, HL116",[1],0.008 nM
same,"EC50 6-16 reporter activity, HL116-CLEC9A",[1],0.006 nM
wild type interferon alpha 1 (IFNα1) (ligand) CDLPETHSLDNRRTLMLLAQMSRISPSSCLMDRHDFGFPQEEFDGNQFQKAPAISVLHELIQQIFNLFTTKDSSAAWDEDLLDKFCTELYQQLNDLEACVMQEERVGETPLMNADSILAVKKYFRRITLYLTEKKYSPCAWEVVRAEIMRSLSLSTNLQERLRRKE,"EC50 6-16 reporter activity, HL116",[2],0.105 nM
same,"EC50 6-16 reporter activity, HL116 (Exp 1)",[2],2.38 ng/mL
same,"EC50 6-16 reporter activity, HL116-CLEC9A",[2],0.084 nM
same,"EC50 6-16 reporter activity, HL116-huCD20 (Exp 1)",[2],3.25 ng/mL
same,EC50 of luciferase (6-16 reporter) induction in HL116-CLEC9A cells,[2],1.6 ng/mL
same,EC50 of luciferase (6-16 reporter) induction in parental HL116 cells,[2],2 ng/mL
same,"EC50 pSTAT1 in PBMC's, CD20 negative (Exp 1)",[2],7.51 ng/ml
same,"EC50 pSTAT1 in PBMC's, CD20 negative (Exp 2)",[2],6.77 ng/ml
same,"EC50 pSTAT1 in PBMC's, CD20 positive (Exp 1)",[2],3.97 ng/ml
same,"EC50 pSTAT1 in PBMC's, CD20 positive (Exp 2)",[2],2.72 ng/ml
same,fold decrease in potency in 6-16 reporter induction relative to IFNα2,[2],10 to 15 fold
same,ratio CD20 neg/pos of EC50 6-16 reporter activity (Exp 1),[2],0.7
same,ratio CD20 neg/pos of EC50 pSTAT1 in PBMC's (Exp 1),[2],2
same,ratio CD20 neg/pos of EC50 pSTAT1 in PBMC's (Exp 2),[2],2.5
same,"ratio of EC50 6-16 reporter activity, HL116 / HL116-CLEC9A",[2],1.2
CD20 VHH-(GGS)20-hIFNα1-His6 (other) QVQLQESGGGLAQAGGSLRLSCAASGRTFSMGWFRQAPGKEREFVAAITYSGGSPYYASSVRGRFTISRDNAKNTVYLQMNSLKPEDTAVYYCAANPTYGSDWNAENWGQGTQVTVSSVDGGSGGSGGSGGSGGSGGSRSGGSGGSGGSGGSGGSGGSGGSGGSGGSGGSGGSGGSGGSAAACDLPETHSLDNRRTLMLLAQMSRISPSSCLMDRHDFGFPQEEFDGNQFQKAPAISVLHELIQQIFNLFTTKDSSAAWDEDLLDKFCTELYQQLNDLEACVMQEERVGETPLMNADSILAVKKYFRRITLYLTEKKYSPCAWEVVRAEIMRSLSLSTNLQERLRRKELEHHHHHH,"EC50 6-16 reporter activity, HL116-huCD20 (Exp 1)",[3],0.0241 ng/mL
same,"EC50 pSTAT1 in PBMC's, CD20 positive (Exp 1)",[3],0.114 ng/ml
same,"EC50 pSTAT1 in PBMC's, CD20 positive (Exp 2)",[3],0.085 ng/ml
